Km data for one protein are collected here from patent US12534748B2, “Engineered beta-subunit of tryptophan synthase for production of non-canonical amino acids” (California Institute of Technology, priority 2015, dated 2026).

Substrate in this data set: c1ccc2[nH]ccc2c1
Nature of the data set: Tryptophan formation from L-serine and indole, kinetics of TmTrpB double mutant. The class given is biochemical, Thermotoga maritima. The settings on record: other: 75° C., pH 8.0. The procedure:
Kinetics and UV-Vis Spectroscopy. Data were collected between 550 and 250 nm on a UV1800 Shimadzu spectrophotometer (Shimadzu) using 0.25-20 μM of enzyme in 200 mM potassium phosphate (pH 8.0) in a quartz cuvette. Samples were incubated at 75° C. for >3 min to ensure a stable temperature was reached. PfTrpB activity (kcat) was measured by monitoring tryptophan formation at 290 nm using Δe290=1.89 mM^−1·cm^−1.
Cloning, expression, and purification of the different orthologs. The genes encoding AfTrpB (UNIPROT ID O28672), TmTrpB (UNIPROT ID P50909) and EcTrpB (UNIPROT ID P0A879) were obtained from IDT and cloned into pET22(b)+ using Gibson Assembly. Protein expression was carried out in E. coli BL21 E. cloni Express cells (Lucigen) by inoculating 10-mL Terrific Broth (with 100 μg/mL ampicillin (TBamp)) with a single colony and incubated over night at 37° C. and 250 rpm. These overnight cultures were used to scale up to 500-mL TBamp expression cultures, which were grown by shaking at 250 rpm and 37° C. for ˜3 h or until an OD600 of 0.8 was reached. Then, after chilling the cultures on ice for 20 min, induction was conducted by the addition of IPTG to a final concentration of 1 mM. Induced cultures were allowed to grow at 250 rpm and 20° C. for another 20 h. After centrifugation, pelleted cells were frozen and stored at −20° C. until further use. […]

B1: Thermotoga maritima TrpB variant M145T N167D (Table 6 prints N167T), SEQ ID NO: 36 (Thermotoga maritima MSB8; M145T/N167D) (protein)
chain: MKGYFGPYGGQYVPEILMPALEELEAAYEEIMKDESFWKEFNDLLRDYAGRPTPLYFARRLSEKYGARIYLKREDLLHTGAHKINNAIGQVLLAKKMGKTRIIAETGAGQHGVATATAAALFGMECVIYMGEEDTIRQKPNVERTKLLGAKVVPVKSGSRTLKDAIDEALRDWITNLQTTYYVIGSVVGPHPYPIIVRNFQKVIGEETKKQILEKEGRLPDYIVACVGGGSNAAGIFYPFIDSGVKLIGVEAGGEGLETGKHAASLLKGKIGYLHGSKTFVLQDDWGQVQVTHSVSAGLDYSGVGPEHAYWRETGKVLYDAVTDEEALDAFIELSRLEGIIPALESSHALAYLKKINIKGKVVVVNLSGRGDKDLESVLNHPYVRERIRLEHHHHHH
Usually Km stands for the substrate concentration at which the rate is half of its maximum. As for B1, the Michaelis-Menten constant (Km) is 32 µM.
